# Test results reported in the supplement of paper PMC10567573.
# ± gives the standard deviation.
# Assay: protein stability index of a GFP-peptide fusion (GPS, HEK-293T) (PSI 1-6); higher = more stable
# Details: c terminus: a fixed tail appended
# 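Further: 24-mer peptide tiles fused after GFP, lentivirally expressed, FACS-sorted into six equal bins by GFP/DsRed ratio, decoded by Illumina sequencing, PSI is the read-weighted mean bin number.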
Sequence,protein stability index (treatment: DMSO),"protein stability index (treatment: MLN4924 1 uM, 8 h)"
EIPWTSLTRKGLVRVVFFPLFSNW [PHTF1],3.09 ± 0.89,2.84 ± 0.23
NKTNKNSVSSCDQEHQSALEEAKQ [SMOC2],5.13 ± 0.43,5.57 ± 0.3
KAPYLCEATHEPAAARIRAQVPDT,4.65 ± 0.4,4.2 ± 0.68
LPSPVQACSEDSLFLRCSLRHKDE [DRICH1],4.31 ± 0.15,4.48 ± 0.2
KELIIFRLVAPTEGSLEWDILEVK [WDR41],2.22 ± 0.24,2.21 ± 0.4
GSIPEFFHIMKRKFTNKEWETIRS [AASDHPPT],2.73 ± 0.27,2.46 ± 0.3
APRLLKREPDWGDGDAPGSLLPAQ [CEBPD],4.87 ± 0.43,5.03 ± 0.37
ETNRLGRLINHSKCGNCQTKLHDI [KMT5A],2.57 ± 0.36,2.75 ± 0.23
LDYSFGDHTSEAVRNLFGLDPSSG [PCDHGC5],3.55 ± 0.13,3.54 ± 0.38
FALLADKAAQQGKQEENDVVEKLN [SNX8],5.38 ± 0.13,5.33 ± 0.15
LEEEIERNKESPVFAPVYFPEELH [HMOX1],5.32 ± 0.43,5.09 ± 0.57
NHQKDLFRRTDGRCLIWGRKPKVI [DHCR7],2.66 ± 0.27,2.74 ± 0.3
EGYWLPGDEISIKKKNTNKQEMGT [ZMYND11],4.7 ± 0.17,4.58 ± 0.084
EPAARISPLGALQHGFFRRTADEA [DYRK1B],4.08 ± 0.13,3.89 ± 0.22
DFNLCLFYLPSSPNLSLASEDEEE [SMG5],2.85 ± 0.21,3.14 ± 0.24
MDQLQGLGSDYEQPLEVKNNSNLQ [CDC25A],5.09 ± 0.17,4.85 ± 0.18
KVVKSAQHYTETALDEIKLLKCVR [SRPK2],2.72 ± 0.32,2.68 ± 0.21
PAEESKPAPSPHEEPCSPGLLQDQ [CBY2],5.33 ± 0.27,5.14 ± 0.31
GCILQWKKIYCRICMAQIAYSGNT [ZBED1],2.23 ± 0.81,2.28 ± 0.76
TDLAQQQGGGNGQQQQAMSFAILR [KCNA4],3.96 ± 0.1,3.81 ± 0.35
DLVMALSAGGHGGLLNDTSAPHLE [KCNA4],2.8 ± 0.35,2.58 ± 0.26
FTAKHANKVKVLDAPVPDCLGVHC [FSD1],2.75 ± 0.26,3.04 ± 0.31
STFSSGPSDKMKWCLRVNPKGLDD [SPOPL],2.73 ± 0.5,3 ± 0.47

Sequence,protein stability index (treatment: DMSO),"protein stability index (treatment: MLN4924 1 uM, 8 h)"
SRIAKGGVDHTKMSLHGASGGHER [BTBD10],4.5 ± 0.19,4.43 ± 0.14
AASPQDLAGGYTSSLACHRALQDA [MNAT1],4.21 ± 0.25,4.24 ± 0.37
PRYITDVIDAEPFIRCSLQCRDLV [KLHL12],2.25 ± 0.57,2.26 ± 0.66
LVELSAENEKLHQRVEQLTRDLAG [CEBPD],3.64 ± 0.61,3.73 ± 0.28
METQAEQQELETLPTTKMAQTNPT [CRYBA1],5.24 ± 0.3,5.3 ± 0.29
MDLKTAVFNAARDGKLRLLTKLLA [FEM1C],2.17 ± 0.2,2.3 ± 0.32
DNQWMTQINRLQKLIDRLEKKDLK [NECAB1],2.13 ± 0.43,3.16 ± 0.33
DILEEEKIYAYPSNITSETGFRTI [TMEM192],3.04 ± 0.33,3.4 ± 0.25
EITEELPSSQLMPVKKQLQGASWE [ZNF396],4.09 ± 0.14,4.38 ± 0.22
ENLDEAREQKEKSPPDQPAVPHPP [ADD1],5.61 ± 0.15,5.66 ± 0.28
PVAAQFTSEGTTLSGVDLELVGSG [FCHO1],4.54 ± 0.17,4.57 ± 0.24
GGGNARATGMFLQYTVPGTEGVTQ [ZFYVE21],3.51 ± 0.35,3.57 ± 0.18
SDVICDFPFQAMVQFHRHHGQEGS [GMPPB],3.12 ± 0.32,3.19 ± 0.28
DVNNLDPDLRSLFSRAGISEAQLT [WAS],3.07 ± 0.41,3.34 ± 0.48
TARMEMLIEELYAFMPARSQDPKK [CBY2],2.66 ± 0.39,2.94 ± 0.27
LYSMECAFHPLFSLTSGACRLDYR [TCF25],2.25 ± 0.72,2.38 ± 0.71
QAGDYSMRVDLRAGDEAVFAQYDS [TNXB],4.43 ± 0.42,4.2 ± 0.096
ELERQRRLLGSVQQDLERSLQDAS [PBXIP1],4.62 ± 0.26,4.46 ± 0.28
EEEEAEDEEVVATAGDRLTEFRKG [IRX6],5.48 ± 0.34,5.6 ± 0.28
WLPQQNAAYFLLSTNDKTVKLWKV [PPP2R2B],2.53 ± 0.63,2.6 ± 0.8
RIHERLVAGSLAGAIAQSSIYPME [SLC25A25],2.74 ± 0.52,2.56 ± 0.27
RPNLETYYERVLKRKTFNKVLGHV [GDAP1],2.46 ± 0.092,2.47 ± 0.32
